Values of other authors, collected in article PMC10605242.

Assays:
C4b (Homo sapiens) = C4b (Homo sapiens) (UniProt P0C0L4)
[1] = target: C4b dimer (B isoform) (Homo sapiens) (UniProt P0C0L5)
[2] = target: C4b dimer (A isoform) (Homo sapiens) (UniProt P0C0L4)

| Kd (C4b (Homo sapiens)) [nM] | Kd [1] [nM] | Kd [2] [nM] | Substance |
| --- | --- | --- | --- |
| 1200 | – | – | CR1 SCR15-18 (from UniProt P17927) |
| – | 445 | 130 | CR1 (from UniProt P17927) |
